What was measured:
[1] = target: human PILRA R78 on cells (human) (UniProt Q9UKJ1); experiment: target engagement in brain lysate of human PILRA (R78) BACtg mice, 1 day after dosing; MSD assay, bound versus total PILRA
[2] = target: human PILRA R78 on cells (human) (UniProt Q9UKJ1); experiment: target engagement in brain lysate of human PILRA (R78) BACtg mice, 4 days after dosing; MSD assay, bound versus total PILRA

Chain of human PILRA R78 on cells (human) (Q9UKJ1 20-303 limits assumed): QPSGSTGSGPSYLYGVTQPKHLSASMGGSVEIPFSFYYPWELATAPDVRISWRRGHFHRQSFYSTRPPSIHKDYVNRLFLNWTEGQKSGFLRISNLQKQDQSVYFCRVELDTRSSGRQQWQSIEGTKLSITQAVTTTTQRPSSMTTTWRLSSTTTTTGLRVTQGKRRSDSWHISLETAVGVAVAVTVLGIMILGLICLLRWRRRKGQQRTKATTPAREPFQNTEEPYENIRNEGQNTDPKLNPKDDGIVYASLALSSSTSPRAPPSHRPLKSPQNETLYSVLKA

percent of brain human PILRA bound, 1 day [1]: 17%
percent of brain human PILRA bound, 4 days [2]: 16%
Substance: isotype control antibody
